Data reported in paper PMC2150586 (The Journal of Cell Biology, 1999).

T1: MBPFar1 (Far1p residues 133–831 fused to maltose binding protein) (S. cerevisiae, UniProt P21268 133-830)
T1 sequence: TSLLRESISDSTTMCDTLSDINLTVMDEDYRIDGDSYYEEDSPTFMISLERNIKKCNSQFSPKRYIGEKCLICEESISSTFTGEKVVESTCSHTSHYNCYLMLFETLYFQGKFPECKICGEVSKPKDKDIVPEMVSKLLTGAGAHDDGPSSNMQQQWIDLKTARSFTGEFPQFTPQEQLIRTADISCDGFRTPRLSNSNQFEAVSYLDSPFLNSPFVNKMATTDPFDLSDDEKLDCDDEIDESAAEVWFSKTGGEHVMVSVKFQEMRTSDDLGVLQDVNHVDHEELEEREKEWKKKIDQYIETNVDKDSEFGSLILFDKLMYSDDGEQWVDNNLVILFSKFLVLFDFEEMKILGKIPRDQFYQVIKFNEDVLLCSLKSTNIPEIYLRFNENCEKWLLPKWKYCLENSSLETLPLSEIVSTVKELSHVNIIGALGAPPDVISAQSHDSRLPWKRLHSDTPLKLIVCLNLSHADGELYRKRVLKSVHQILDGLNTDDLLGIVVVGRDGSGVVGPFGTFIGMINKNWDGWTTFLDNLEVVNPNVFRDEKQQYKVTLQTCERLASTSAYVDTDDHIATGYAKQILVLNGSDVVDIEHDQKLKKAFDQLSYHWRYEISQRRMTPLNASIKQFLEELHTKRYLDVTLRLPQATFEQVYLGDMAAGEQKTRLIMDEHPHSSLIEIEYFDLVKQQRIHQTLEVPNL

T2: Cdc24p fused to the GAL4 DNA binding domain (pAS1Cdc24) (S. cerevisiae, UniProt P11433 1-854)
T2 sequence: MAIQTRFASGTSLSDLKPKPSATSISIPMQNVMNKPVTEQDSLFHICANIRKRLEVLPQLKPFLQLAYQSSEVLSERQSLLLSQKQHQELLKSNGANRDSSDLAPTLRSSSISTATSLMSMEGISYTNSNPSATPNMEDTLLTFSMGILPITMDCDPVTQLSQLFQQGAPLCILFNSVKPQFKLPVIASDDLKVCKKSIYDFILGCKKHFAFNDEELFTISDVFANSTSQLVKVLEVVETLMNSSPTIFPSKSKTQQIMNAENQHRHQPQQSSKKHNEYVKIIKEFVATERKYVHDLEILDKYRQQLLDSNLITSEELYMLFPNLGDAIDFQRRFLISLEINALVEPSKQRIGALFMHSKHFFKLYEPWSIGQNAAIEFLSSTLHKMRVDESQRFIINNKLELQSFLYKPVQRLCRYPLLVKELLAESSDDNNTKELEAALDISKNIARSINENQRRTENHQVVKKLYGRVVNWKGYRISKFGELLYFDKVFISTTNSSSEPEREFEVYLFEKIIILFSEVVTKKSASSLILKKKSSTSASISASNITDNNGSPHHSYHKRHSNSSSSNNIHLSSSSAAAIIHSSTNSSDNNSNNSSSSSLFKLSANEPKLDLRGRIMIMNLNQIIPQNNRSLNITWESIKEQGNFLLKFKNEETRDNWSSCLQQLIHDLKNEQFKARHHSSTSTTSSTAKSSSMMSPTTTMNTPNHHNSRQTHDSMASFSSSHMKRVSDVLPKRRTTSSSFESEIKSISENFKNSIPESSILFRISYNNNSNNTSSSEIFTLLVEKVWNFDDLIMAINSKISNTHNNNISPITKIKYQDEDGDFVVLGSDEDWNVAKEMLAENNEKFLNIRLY


Columns and labels:
[1] = molecular target: T1, MBPFar1 (Far1p residues 133–831 fused …); assay: […]
[2] = molecular target: T2, Cdc24p fused to the GAL4 DNA binding …; assay: two-hybrid

binding result [1] | fold increase in LacZ activity with Gγ overexpressed [2] [fold] | further fold increase in LacZ activity with Far1p also overexpressed [2] [fold] | Binder
binds |  |  | GSTCdc24 (NH2-terminal 472 amino acids of Cdc24p fused to GST) (domain or fragment) MAIQTRFASGTSLSDLKPKPSATSISIPMQNVMNKPVTEQDSLFHICANIRKRLEVLPQLKPFLQLAYQSSEVLSERQSLLLSQKQHQELLKSNGANRDSSDLAPTLRSSSISTATSLMSMEGISYTNSNPSATPNMEDTLLTFSMGILPITMDCDPVTQLSQLFQQGAPLCILFNSVKPQFKLPVIASDDLKVCKKSIYDFILGCKKHFAFNDEELFTISDVFANSTSQLVKVLEVVETLMNSSPTIFPSKSKTQQIMNAENQHRHQPQQSSKKHNEYVKIIKEFVATERKYVHDLEILDKYRQQLLDSNLITSEELYMLFPNLGDAIDFQRRFLISLEINALVEPSKQRIGALFMHSKHFFKLYEPWSIGQNAAIEFLSSTLHKMRVDESQRFIINNKLELQSFLYKPVQRLCRYPLLVKELLAESSDDNNTKELEAALDISKNIARSINENQRRTENHQVVKKLYGRVV
 | ~2 | ~3.5 | Ste4p (Gβ) fused to the GAL4 activation domain (pGAD424Ste4) (natural protein) MAAHQMDSITYSNNVTQQYIQPQSLQDISAVEDEIQNKIEAARQESKQLHAQINKAKHKIQDASLFQMANKVTSLTKNKINLKPNIVLKGHNNKISDFRWSRDSKRILSASQDGFMLIWDSASGLKQNAIPLDSQWVLSCAISPSSTLVASAGLNNNCTIYRVSKENRVAQNVASIFKGHTCYISDIEFTDNAHILTASGDMTCALWDIPKAKRVREYSDHLGDVLALAIPEEPNSENSSNTFASCGSDGYTYIWDSRSPSAVQSFYVNDSDINALRFFKDGMSIVAGSDNGAINMYDLRSDCSIATFSLFRGYEERTPTPTYMAANMEYNTAQSPQTLKSTSSSYLDNQGVVSLDFSASGRLMYSCYTDIGCVVWDVLKGEIVGKLEGHGGRVTGVRSSPDGLAVCTGSWDSTMKIWSPGYQ
